Assay results taken from the RNAGym collection of RNA variant scans (doi:10.7554/elife.80360).

B1: Hairpin Ribozyme (parent)
chain: GUCCUCUUUCACGUGCGCGUGAAAGAGAGAAGUGAACCAGAGAAACACACGUUGUGGUAUAUUACCUGGUA

Variants of: B1
Assay: self-cleavage, relative activity (ratio to wild type); higher = more cleavage; co-transcriptional

Row | Variant | self-cleavage
1 | GUCCUCUUACACGUGCGCGUGAAAGAGAGAAGUGAACCACAGAAACACACGUUGUGGUAUAUUACCUGGUA [U9A G40C] | 0.133
2 | GUCCUCUUACACGUGCGCGUGAAAGAGAGAAGUAAACCAGAGAAACACACGUUGUGGUAUAUUACCUGGUA [U9A G34A] | 0.905
3 | GUCCUCUUACACGUGCGCGUGAAAGAGAGAAGUUAACCAGAGAAACACACGUUGUGGUAUAUUACCUGGUA [U9A G34U] | 1.19
4 | GUCCUCUUACACGUGCGCGUGAAAGAGAGAAGUGAACCAGAGAAACACACGUUGUGGUUUAUUACCUGGUA [U9A A59U] | 0.14
5 | GUCCUCUUACACGUGCGCGUGAAAGAGAGAAGUGAACCAGAGAAACACACGUUGUGGUAUUUUACCUGGUA [U9A A61U] | 0.185
6 | GUCCUCUUACACGUGCGCGUGAAAGAGAGAAGUGAACCAGAGAAACACACGUUGUGGUAUGUUACCUGGUA [U9A A61G] | 0.148
7 | GUCCUCUUACACGUGCGCGUGAAAGAGAGAAGUGAACCCGAGAAACACACGUUGUGGUAUAUUACCUGGUA [U9A A39C] | 0.423
8 | GUCCUCUUACAUGUGCGCGUGAAAGAGAGAAGUGAACCAGAGAAACACACGUUGUGGUAUAUUACCUGGUA [U9A C12U] | 0.645
9 | GUCCUCUUACACGUACGCGUGAAAGAGAGAAGUGAACCAGAGAAACACACGUUGUGGUAUAUUACCUGGUA [U9A G15A] | 0.704
10 | GUCCUCUUACACGUUCGCGUGAAAGAGAGAAGUGAACCAGAGAAACACACGUUGUGGUAUAUUACCUGGUA [U9A G15U] | 0.864
11 | GUCCUCUUACACGUGCGCGUGAAAGAGAGAAGUGAACCAGAGAAACCCACGUUGUGGUAUAUUACCUGGUA [U9A A47C] | 0.205
12 | GUCCUCUUACACGUGCGCGUGAAAGAGAGAAGUGAACCAGAGAAACACACGUUGUGGUAUAUUAACUGGUA [U9A C65A] | 0.69
13 | GUCCUCUUACACGUGCGCGUGAAAGAAAGAAGUGAACCAGAGAAACACACGUUGUGGUAUAUUACCUGGUA [U9A G27A] | 0.25
14 | GUCCUCUUACACGUGCGCGUGAAAGAGAGAAGUGAACAAGAGAAACACACGUUGUGGUAUAUUACCUGGUA [U9A C38A] | 0.146
15 | GUCCUCUUACACGUGCACGUGAAAGAGAGAAGUGAACCAGAGAAACACACGUUGUGGUAUAUUACCUGGUA [U9A G17A] | 0.695
16 | GUCCUCUUACACGUGCCCGUGAAAGAGAGAAGUGAACCAGAGAAACACACGUUGUGGUAUAUUACCUGGUA [U9A G17C] | 0.261
17 | GUCCUCUUACACGUGCUCGUGAAAGAGAGAAGUGAACCAGAGAAACACACGUUGUGGUAUAUUACCUGGUA [U9A G17U] | 0.65
18 | GUCCUCUUACACGUGCGCGUGAAAGAGAGAAGUGAACCAGAGAAACACACGUUGUGGUAUAUUGCCUGGUA [U9A A64G] | 0.284
19 | GUCCUCUUACACGUGCGCGUGAAAGAGAGAAGUGAACCAGAGAAACACACGUUGUGGUAUAUUCCCUGGUA [U9A A64C] | 0.0749

Row | Variant | self-cleavage
20 | GUCCUCUUACACGUGCGCGUGAAAGAGAGAAGUGAACCAGAGAAAAACACGUUGUGGUAUAUUACCUGGUA [U9A C46A] | 0.0884
21 | GUCCUCUUACACGUGCGCGUGAAAGAGAGAAGUGAACCAGAGAAACACACGUUGUGGUAUAUUACAUGGUA [U9A C66A] | 0.166
22 | GUCCUCUUACACGUGCGCCUGAAAGAGAGAAGUGAACCAGAGAAACACACGUUGUGGUAUAUUACCUGGUA [U9A G19C] | 0.588
23 | GUCCUCUUACACGUGCGCGUGAAAGAGAGAAGUGAACCAGAGAAACACACGUUGUGGUAUAUUACCUGGUU [U9A A71U] | 0.525
24 | GUCCUCUUACACGUGCGCGUAAAAGAGAGAAGUGAACCAGAGAAACACACGUUGUGGUAUAUUACCUGGUA [U9A G21A] | 0.573
25 | GUCCUCUUACACGUGCGCGUUAAAGAGAGAAGUGAACCAGAGAAACACACGUUGUGGUAUAUUACCUGGUA [U9A G21U] | 0.732
26 | GUCCUCUUACACGUGGGCGUGAAAGAGAGAAGUGAACCAGAGAAACACACGUUGUGGUAUAUUACCUGGUA [U9A C16G] | 0.511
27 | GUCCUCUUACACAUGCGCGUGAAAGAGAGAAGUGAACCAGAGAAACACACGUUGUGGUAUAUUACCUGGUA [U9A G13A] | 0.471
28 | GUCCUCUUACACGUGCGCGUGAAAGAGAGAAGUGAGCCAGAGAAACACACGUUGUGGUAUAUUACCUGGUA [U9A A36G] | 0.797
29 | GUCCUCUUACACGUGCGCGUGAAAGAGAGAAGUGACCCAGAGAAACACACGUUGUGGUAUAUUACCUGGUA [U9A A36C] | 0.456
30 | GUCCUCUUACACGUGCGCGUGAAAGAGAGAAGUGAACCAGAGAAACACCCGUUGUGGUAUAUUACCUGGUA [U9A A49C] | 0.254
31 | GUCCUCUUACACGUGCGCGUGAAAGAGAGAAGUGAACCAGAGACACACACGUUGUGGUAUAUUACCUGGUA [U9A A44C] | 0.132
32 | GUCCUCUUACACGUGCGCGUGAAAGAGAGAAGUGAACCAGAGAUACACACGUUGUGGUAUAUUACCUGGUA [U9A A44U] | 0.109
33 | GUCCUCUUAAACGUGCGCGUGAAAGAGAGAAGUGAACCAGAGAAACACACGUUGUGGUAUAUUACCUGGUA [U9A C10A] | 0.743
34 | GUCCUCUUAGACGUGCGCGUGAAAGAGAGAAGUGAACCAGAGAAACACACGUUGUGGUAUAUUACCUGGUA [U9A C10G] | 0.519
35 | GUCCUCUUAUACGUGCGCGUGAAAGAGAGAAGUGAACCAGAGAAACACACGUUGUGGUAUAUUACCUGGUA [U9A C10U] | 0.455
36 | GUCCUCUUACACGUGCGCGUGAAAGAGAGAAGUGAACCAGUGAAACACACGUUGUGGUAUAUUACCUGGUA [U9A A41U] | 0.786
37 | GUCCUCUUACACGUGCGCGUGAAAGAGAGAAGUGAACCAGCGAAACACACGUUGUGGUAUAUUACCUGGUA [U9A A41C] | 0.783
38 | GUCCUCUUACACGUGCGCGUGAAAGAGAGAAGUGAACCAGACAAACACACGUUGUGGUAUAUUACCUGGUA [U9A G42C] | 0.187
